Experiment: protease stability score; higher = more stable; yeast display proteolysis, trypsin and chymotrypsin;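 further: relative to predicted unfolded state with 0 unfolded-like and 1 meaning tenfold more protease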
“SEEEESTHVWSRLFSHAIETGDEDLLERLIDPHVKLIVDGRELHGREELLTWIRRLFRHLGIDHMEVRIKNFDIINGRIRVEDELLLIVNGKEIRLETKVTVEKFDGKWHNQEVKIE” showed a protease stability score of 0.776. In the case of “SEDDHERHRFLELIKHNHKTGNEENIYRMADPDVRLHIGDKEFHGMEHHMEFLREWLDRLGIDKVEFQVERIHVQGDKINVDVNLNVNGKHYRVILYLIKIDGRWRIKLLEIR”, the protease stability score is reported as 0.884. Work on “EENREITEKIMRHWLTLFLTGDFERLIELMDPEVKFLIDGRELHGWEVWRKLMTLTIRRYKNIRIHITSIDVFENHTHVETYENVNGVHIDTRLNLFLVNGRIQSIEMDTK” yielded a protease stability score of 1.7. In the case of “DDLEREAKTMVDRFRELMATGDFEEREHLVDPNTRWHVNGQDFHGRELITEILIKKFEDLGVEKITFRVERIRVVGDKIEVDGVLIIDGREIDTRLNWTKVNGRWIIKFESEK”, the protease stability score is reported as 0.927. Work on “DEEEELNREALKEFHDDMKTGDERHILENLDPNTRIQFNGRDLHGRENAERFIRELIQKYGATVFNMKRVEVQGDWLHIDGELVIGDKKHRIHIIAVKINGRWTDTELRIK” yielded a protease stability score of 1.48. “DEEEHEEKRLLEMHLHYLATGDEENLKKLLDPNVKLVVNGREIHGRERIIEFIRRLIEMWGVDRIDSRIRHVTSQGDKIRLEGEWIVGEKVIDTRLLAVKVDGRWVEETLILK” gave a protease stability score of 2.13. For “REEEKMMRHIFRLDVILELTGDEEKWKHYADPNVRVIFIFENVHIEHHGRDAWVRLLHHMRIDRIIIHRLRVFENHNQADTFVKGEINGRELDMETHFYVLVINGRRKEVELEVR”, the protease stability score was 1.46. Work on “SEREELVRYAIELMEEVMRTGDERLIESMADPNTRVVVNGVELHGRNHLLRVWSEWRTRDMREREVHVYDGRIEMHGTSDITIGDKHVITDTRHIAEKVDGRWILRSVEFR” yielded a protease stability score of 0.405. With “DEEEHNLKKFLEIFLKAERTGDEEALRRMLDPNTKFVVGDKTYHGREEYIRWLNEIRIHRTEDKHIEVQGNKLHMDTRRRMEIDGREIDTEVRLELEVINGVVKLIIVDIR” the protease stability score was 1.86. Sequence “DEEEKATHEAIEEIIETLRTGDEHIMRELMDPHVKVVQGDKEHHGRESFIKWMRLWFERAGVDQIDMRIKDHDSQGEKITLDGSLYVNGVEIDTHIISHKINGRWLNRSVIIQ” has a protease stability score of 1.22. “NKMDEYAYKMLELWLEAFLTGDFEFIEKNLDPHVRSRINGVELIGRHLYLEMVRREMEEIRVKDVHPRRVEIIDGVVHFHGEWNGQVNGRETHKEHEVEIIVVNGRLKSVIFRIR” gave a protease stability score of 1.27. Work on “SEDEDHARLMFELLLRMITTGDEESLRELVDPNVRVSVDGVDLHGWDSLSKFLKHIRIRVDHSEMHDMRVIDGVLQANTHMQITVEFNGRRVQRQVETRVEVVKINGKWAIHRFSVH” yielded a protease stability score of 2.55. Sequence “DEEEKEIRHQAEHWFHIILTGDEDTLRNLADPNVRSVWVIGDYERHEHGMDEHNKILKEWRFEEYRRDSIHAINGRVHLDIRSVMTINGKRMSFRIHIDIHVVNGVRKSITIRIE” has a protease stability score of 0.702. “DETHEEHNRFAEEYVHALHTGDEDRLRELMDPNVRFILIIDGKEVRLHGWELLLRVIREFWERFKNIRIFIRDIDLQGEKIRLETEVNVDGVDEHWRINMVVVNGRIKSLIIEQR” showed a protease stability score of 2.32. “SEHEEHIKHLAEEWIRLVLTGNEEIIDHLFDPNVRVEIDGREMIGREKMNEWMRHVLRHWRTHIVIRRMTAIGDKAHSDGELILHVGDKTIRTKVHFHLVIIDGRIHEVSVDIR” showed a protease stability score of 1.58. Work on “DEDHKLLEKFYRIWVEMFKTGDEERWKHLADPDARSDINGVDFIGRDTVSKIMESFLRKMGFDHMEIRRFDFQGEKIKSDVVLDFNGRDVRTEIHIIVVDGRIKEERFRVT” yielded a protease stability score of 0.192. In the case of “EEEDEWSREAVEFFKRMVETGDEDLQETLADPNARLIQGDKDEHGRHVLSEWMHRMGVDHIRFHHIDVQGDKVRLDFTMRVNGRQIHVKINNMKVNGQWRIKSVHLR”, the protease stability score is reported as 0.537. With “EHEEEHTRHFMHFFIEMVETGDETALHKLLDPNAKYIQGDKHLVGRELMVEWMEELVRRFKNIRVHITEIERQGDKARVDEKWDINGKKIKTELIITKIDGQWRIHEIRVK” the protease stability score was 1.23. In the case of “SETHEILERIMRMILEILYTGDEESMSRLLDPHVKLVVVIGDKELHLHGRENALRWLVHWRIEDYRLRRYTVQGDKAHVDTESTGNYNGQREESRFSLHVKVINGKIHNMKFEFE”, the protease stability score is reported as 2.56. With “HEEEKIIEEASKRWLELMQTGDEDKVLHYLDPEYRSEWDGVEIHGRETFRKWLLDLLRKFKGLRFEFRDVRDVGDKVRIIGTVTYDGKVRDTRIDVVIVNGRYKSMEIHFN” the protease stability score was 1.69. With “SEEEHLFEFVIRVIYHAMKTGDWEFWERYLDPHVRYQQGDKEHHGRKMTLHYLERLSDELGVTRIEVDLKHIHVYNGRVEIIGELNINGRRTEVRITSEKINGRWTVKELHIV” the protease stability score was 1.55. In the case of “SEDEELVHHIIKLWLESLVTGDERVFEELADPNVLLVVGEKTHHGRELYSEMFEILVTEIRFHEVHIRHYRHQGDKVKLDLRIDGEIDGQKTHDKAHIILHKIDGRWQLRSMIIH”, the protease stability score is reported as 1.33. For “SEDHEDMDRMFDLLIKLLYTGDEESLEELFDPNTRIDVGDKVLHGRELAVKHVKDRLRRADHIEFHIKDRRAIDGRLEIDMELRIHVDGKDIIIRTKVHLEKVNGRWLIHHIKVH”, the protease stability score was 1.38. In the case of “DDEDEEVKLIIEEELHLARTGDFERLLELHDPDVRIIFDGREWHGREALRWLYRHLGIDRIDLHFEDVRVINGRVEMDVTENINGRKIKSRIIARKYDGRWINEQVDIK”, the protease stability score is reported as 2.28. For “DEIEEEVRKFAEIHSRDLMTGNFESFREQADPHVRVIINGREFHGWHFLFHWLQEMRIHRVRIEDVRVYGDKAILDTRVESHVDGRTFDLEFKLVLSKVDGRWRVHQIILR”, the protease stability score was 1.11.

From the NTF2 design screens of Basanta et al. (2020)
